System: MS2 coat protein
Assay: apparent KD of MS2 coat protein; designed switch direction (-1 OFF switch, 1 ON switch): -1; higher = weaker reporter binding
Method in brief: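 An oligonucleotide input, 200 uM small-molecule ligand, or no input was present during titration of SNAP-549-labelled MS2 coat protein, which was doubled from 0.7 or 1.5 nM to 3 µM. Designed RNA switches had been transcribed on Illumina chips by stalled E. coli RNA polymerase. Apparent KD per design is the median over clusters of curves fitted to normalised cluster fluorescence.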

[1] = Eterna round: R95, input ligand: microRNA oligo, concentration not stated
[2] = input ligand: microRNA oligo, concentration not stated
[3] = Eterna round: R95, input ligand: FMN 200 uM
[4] = Eterna round: R95, input ligand: none

Sequence	apparent KD of MS2 coat protein [1]	apparent KD of MS2 coat protein (input ligand: FMN 200 uM)	apparent KD of MS2 coat protein [2]	apparent KD of MS2 coat protein (input ligand: none)	apparent KD of MS2 coat protein [3]	apparent KD of MS2 coat protein [4]
AUACCACGAGGAUAUCGUCUAUUCCACAUGAGGAUCACCCAUGUUAUCCAUGUUUCGUUUCGAGAAGGCGUGUUUU [JR_E5_Sub075] (puzzle: Exclusion 5)	54.1 nM	–	–	–	–	–
CGGGCCGGCCUUCCGGCCGGCCCGACAUGAGGAUCACCCAUGUAGGAUAUCCCGGCUGCCGGCCGGGAGAAGGGCGUGCGCUUU [-47.6, -45.1 kcal, 14% A] (Eterna round: R96, puzzle: Exclusion NG 3)	–	36.5 nM	20.8 nM	36.5 nM	–	–
GCAGCGUAUGUAGGAUAUCGGUCAGUUUCUGAUCGAGAAGGACAUGAGGAUCACCCAUGUGCGGUCAUGCGUGAGCAUGGCUGC [JL ENG1 3.74] (Eterna round: R96, puzzle: Exclusion NG 1)	–	268 nM	31.3 nM	41.2 nM	–	–
UUUCUCGUUGUGAGGAUAUCGUUUUUGUCUCGGAUCGAGAAGGCACAUGAGGAUCACCCAUGUUUGUUGUGGUU [JR_BMOE4_Sub089] (puzzle: Brourd's mod of Exclusion 4)	74.9 nM	–	–	–	–	–
AAUUGGUUAGGAUAUCGGGAAUAUCACAUGAGGAUCACCCAUGUGACCUUUAUGGUGUCAUGAGAAGGGACGCGGA [Eternabot (L1) Solution 11] (Eterna round: R97, puzzle: Exclusion 5)	–	27.9 nM	–	24.5 nM	–	–
GGGCGUUAAGGAUAUGAUUGAAGGAACAUGAGGAUCACCCAUGUUCGGUGCCUAAUGUUCUCAGAAGGUGAUAGCU [Eternabot (L1) Solution 50] (Eterna round: R97, puzzle: Exclusion 5)	–	186 nM	–	175 nM	–	–
GCACGAAGUGUAGGAUAUCUGUGCGAUUAGCUCAGAGAAGGACACAUGAGGAUCACCCAUGUGUUCCAAUACUCAAAUACGUGC [Eli exng1 - 0622] (Eterna round: R96, puzzle: Exclusion NG 1)	–	10.1 nM	9.09 nM	12.2 nM	–	–
CCUUUGUCAGGAUAUCGUGCAUACAACGAAAGUUCUAUGUGCGAGAAGGGACAUGAGGAUCACCCAUGUUACGG [Omei Ex4 A3] (Eterna round: R97, puzzle: Exclusion 4)	–	172 nM	–	368 nM	–	–
CGCGCCUUUGUCAGGAUAUUCGGACGAGCCCGGCCGGAGAAGGGACUUGAGGAUCACCCAAGUGACGCGAAGAC [Anrearra] (Eterna round: R97, puzzle: Brourd's mod of Exclusion 4)	–	35.1 nM	–	31.9 nM	–	–
UGUCAGAUGGUAGGAUAUCCAUAUCGAGUGUCCCUUUCCUAACAUGAGGAUCACCCAUGUCGGUGGGAGAAGGGCCGUAUGGUG [salish99_ExNG02_R04_034] (Eterna round: R96, puzzle: Exclusion NG 2)	–	12.5 nM	11.5 nM	14.1 nM	–	–
UCCUCGUCAGGAUAUCCACGGAAUAGCGGGAUACCGAGCGUGGAGAAGGGACAUGAGGAUCACCCAUGUAAAAU [Edlare] (puzzle: Exclusion 4)	24.9 nM	–	–	–	–	–
GAUUAUGCGAGCUUUAGGGACAUGAGGAUCACCCAUGUUCGUCUUAUUAGUCUGAAUACGCUGACAUACCUAAAUCU [JMF 95] (puzzle: Sensor v3, turn-off variant 1)	19.5 nM	–	–	–	16.3 nM	19.2 nM
CAGUACUGAGGAUAUACAUGAGGAUCACCCAUGUGUCCCAGCUAGGAUACUAGCAAAGGUAGAAGGCAGUACUG [Mat - Exclusion 3 - Eli Mod - D15] (Eterna round: R97, puzzle: Exclusion 3)	–	945 nM	–	39.2 nM	–	–
GGAUCACGAGGAUAUCGAUUUUAGUACAUGAGGAUCACCCAUGUUGUCCAGGUCUCGAUUCGAGAAGGCGUGAUUC [LRO-Ex5-05] (puzzle: Exclusion 5)	34.5 nM	–	–	–	–	–
GUCAGCUCGUCAGGAUAUACAUGAUAGAUCGAUUAAUUAAUUAAUUUAACAUGAGGAUCACCCAUGUAGAAGGGACGAGCUGAU [ENG2/1-B2] (Eterna round: R96, puzzle: Exclusion NG 2)	–	–	59.2 nM	–	–	–
AAACGGCGGACCGUGGCUUUUUGCUCGUCUUGUGCUUCGACAUGAGGAUCACCCAUGUGGUGGUGGUCCGUUGUAAA [Grok-var2-15 mod JAL] (puzzle: Sensor v3, turn-off variant 2)	40.3 nM	–	–	–	48.3 nM	80.3 nM
UUAGUUUUGCAAGGAUAUGUUUAUUUAUAGUUGCCUCUUACAUGAGGAUCACCCAUGUUUUACUUACAGAAGGUGCAAUGAUUU [JR_ExcNG2_Sub034] (Eterna round: R96, puzzle: Exclusion NG 2)	–	–	138 nM	–	–	–

Sequence	apparent KD of MS2 coat protein [1]	apparent KD of MS2 coat protein (input ligand: FMN 200 uM)	apparent KD of MS2 coat protein [2]	apparent KD of MS2 coat protein (input ligand: none)	apparent KD of MS2 coat protein [3]	apparent KD of MS2 coat protein [4]
AAAAUGCAAGGAUAUACAUAGAUCCGACCUACUUAAAACAAACAUGAGGAUCACCCAUGUAGAAGGUGCCAAAA [Raxerebiti] (puzzle: Exclusion 2)	23.7 nM	–	–	–	44.9 nM	25.5 nM
GCAGACGUAGUGAGGAUAUGCUCUACCUCGGUAGAGCAGAAGGCACAUGAGGAUCACCCAUGUGGCUCCUCAUU [Omei Ex4B B22] (Eterna round: R97, puzzle: Brourd's mod of Exclusion 4)	–	16.8 nM	–	15 nM	–	–
AGAUAACAUGAGGAUCACCCAUGUGAGGAUAUUUACCCAAGAGCUUCGGCUCUCAGGUGAAGAAGGCACAUUGA [EX1 #58] (Eterna round: R97, puzzle: Exclusion 1)	–	316 nM	–	86.4 nM	–	–
ACUUAUAGAGGAUAUACAGAAUAUUACAUGAGGAUCACCCAUGUUCUUCAAUGUAUAUAAGUAGAAGGCUAAGGAU [Mat - Exclusion 5 - JL Mod - D4] (Eterna round: R97, puzzle: Exclusion 5)	–	183 nM	–	25.4 nM	–	–
CAAGUGUUAGGAUAUACCAGUUAAAUGCAGCUGCCGUCGGAGUAGAAGGGACAUGAGGAUCACCCAUGUCGGGA [Eternabot (L1) Solution 28] (Eterna round: R97, puzzle: Exclusion 4)	–	46.1 nM	–	35.1 nM	–	–
GCCCGUGGGCAAGGAUAUCCUACGCUGUUCUGGUUCGUGUCUGUCACAUGAGGAUCACCCAUGUGGGAGAAGGUGCAUUAGGGU [Design 54] (Eterna round: R96, puzzle: Exclusion NG 2)	–	16.7 nM	12.3 nM	16.8 nM	–	–
GCUGACAAGCUGGAGACAGCAGAGACAUGAGGAUCACCCAUGUAGGAUAUCGAUGCGAAAAGCAUCGAGAAGGGCAUAGUCAGC [exng3 v2 a] (Eterna round: R96, puzzle: Exclusion NG 3)	–	13.1 nM	9.71 nM	17.2 nM	–	–
UAAUAAAGGGUAGGAUAUGCCGAACAAACACGAGCAGAAGGACCAAAACACUACUUGAGGAUCACCCAAGUGUCCUUCCGUGGU [Mutated MS2 EX1.6] (Eterna round: R96, puzzle: Exclusion NG 1)	–	52.4 nM	13.2 nM	17.2 nM	–	–
GCCGCUCACGAGGAUAUGGUGGAAAAGCCUUUGCUAGAAGGCGUGACAUGAGGAUCACCCAUGUAGGCACAUGA [Eternabot (L1) Solution 85] (Eterna round: R97, puzzle: Exclusion 6)	–	24.9 nM	–	30.4 nM	–	–
AGUACUAACACGAAAGUGUUAGUACAAUAAGCUUGUGAAACAUGAGGAUCACCCAUGUCCUCAUAAGCUCGUCUUAG [salish99_TOv2_r3_003] (puzzle: Sensor v3, turn-off variant 2)	280 nM	–	–	–	16.4 nM	15.4 nM
CAGGAACCAGCAGGAUAUGUGCGGCUGCUAACGUGAACCAACAUGAGGAUCACCCAUGUAGGCACGCAGAAGGGCUCAGCCUGC [Orgevebe] (Eterna round: R96, puzzle: Exclusion NG 2)	–	8.78 nM	10.6 nM	13.5 nM	–	–
GCAGCAACUCUAACCAACUAAACAUGAGGAUCACCCAUGUCUCAGGAUAUGGUCUGGAUUACAGGCCAGAAGGGAGAAAGCUGC [Eli exng3 - 042] (Eterna round: R96, puzzle: Exclusion NG 3)	–	12.4 nM	12.3 nM	12.6 nM	–	–
AGUACUUACUCGAUAGUGUUAGUACAAUAAGCUUGUGAAACAUGAGGAUCACCCAUGUCCUCAUUAGCUCGUCUUAU [salish99_TOv2_r3_1006] (puzzle: Sensor v3, turn-off variant 2)	758 nM	–	–	–	206 nM	199 nM
UGAUCACAUGAGGAUCACCCAUGUCAGGAUAUCGUCACUGGAGCUGCGGCUCCAGUGACGAGAAGGGACAUAAU [E1/3-A3] (Eterna round: R97, puzzle: Exclusion 1)	–	50.8 nM	–	242 nM	–	–
ACACUGCGAGGAUAUACAUGAGGAUCACCCAUGUAUCGGUAGACAAGGUUAAUUUAAGGUAGAAGGCGCGUAUU [JR_Ex3_Sub008] (Eterna round: R97, puzzle: Exclusion 3)	–	36.9 nM	–	29.1 nM	–	–
AGGCGCUCUGUUAGGAUAUUUGCUGACUACUAGGCGGAGAAGGAACAUGAGGAUCACCCAUGUAUACGAUCCGC [BmEX4 C.16] (Eterna round: R97, puzzle: Brourd's mod of Exclusion 4)	–	13.7 nM	–	12.1 nM	–	–
UGAGCUUCAGGAUAUAUGUGGCGACCGUGAGGUCGAAGGUUACAUGAGGAUCACCCAUGUAGAAGGGAAGUUCU [Mat - Exclusion 2 - JL Mod - D19] (Eterna round: R97, puzzle: Exclusion 2)	–	181 nM	–	62.2 nM	–	–
